Our source for the O.D. values is patent US20030194411A1.

Assay [1] concerns the target MN-PND peptide … (HIV-1 MN strain). The experiment in a line: MN-PND ELISA, serum 1:20, day 0. In general terms: An ELISA detects its analyte on a solid surface through an enzyme-linked reagent.
For assay [2] the target is unchanged. The assay is described as follows: MN-PND ELISA, serum 1:100, day 0.
For assay [3] the target is unchanged. The experiment in a line: MN-PND ELISA, serum 1:500, day 0.
For assay [4] the target is unchanged. The assay is described as follows: MN-PND ELISA, serum 1:1000, day 0.
The target is the same in assay [5]. The assay is described as follows: MN-PND ELISA, serum 1:2500, day 0.

“guinea pig serum sample 0 (day 0, Example V) (antibody)”: the O.D. was determined as 0.15 O.D in assay [1]; 0.07 O.D in assay [2]; 0.05 O.D in assay [3]; 0.05 O.D in assay [4]; 0.04 O.D in assay [5].
